1 variant from IntAct's records for PubMed 23022437 can be followed below.

First the molecules themselves.
B1: Sodium channel protein type 7 subunit alpha (Mus musculus), B1AYL1 (parent)
chain: MLTSPEPKGLVPFTTESLELIENHIAKKCNEDPEEEEGLKPSRNLEAGKRLPIPYGTLPRGTVSEPLEDVDPYYYVKRNTFMVLNRSRVIFRFNAVSIFCTLSPLNSLRRAAIKALVHPLFRLLILISVLTDSILMCMSNLPEWILAIENTLLGIYAFEILVKVIARGIWAGSFSFLGDLWNWLDFSVTLFELITRFSPLSSFLMLKTIRTFRILKIIPLNHGLQSIVMTLAQCLKKLFGAIALALFFLAVFSLLGMGLFMGNLKHKCLRWPEENENETLHNRTGSLNYSPERINFYYMEGAKYALLCGNRTDAGQCPEGYVCVKEGTNPDNGFTSFDNFGWSLLAMFRLMTQDYPELLYHQILYASGKVYMIFFVMISFWFAFYLTSLFLGILTMTYEKEKQRACEESGGLDPKCQQTVKELDEENDAAEMETTQIEMKKRSPTSINTTLDILEDTTLGHREEPETSRKKCPICWHKFIKTCFIWKCSPCWVKLNEFADRVITHPLADLFLVICIVLNICFLALEHFPMSEELRSLLHVGNLVFIGIYTIEMILKIIAMHPYGYFQISWNIFDSILVVLELTEILLADVEGLAVLITVPLIFIKLGKYGPPFKSLMRILGSSLMALKDLVLLLCIFVYFSAVFGMKLFGRSYKDCVCHIKEDCQPQRWHMSDFLHAYMTVFRILCGEWIETLWECMEVAGQAWCIPFYMMVILIGNLLILYLFVTLVSSFSYYDATSEVNKEAKNLQLAMARIKSGINSMLLKLMCTERSVPTEATDQICDPSVKENISGHTLSELSNTQTFLRYKDQSSSTEKTPVTESESQSLIASPSASETVPIASGESDIENLDNKETRSKSGNGGSKEKMKQSSSSECSTVDIAISEEEEMVYEHEKSKLHKNGYERKSSTGQISRESRNGKIWKNIRKTCCKIVENSWFECFIGLVTLLCTGTLALEDIYIDQRKTTKILLEYADMIFAYIFILEMLLKWVAYGFKAFFSNNWYKLDFMVVIVFCLSLIGKTREDLNPLTSIKFLRALRVLSQFERMKVVLRALIKTTLPTVSVFLVCLMIWLLFSVIGVQLFAGKFYECIDPTKGERFPVFEVMNKSQCEKLLFNESMPWENAKLNFDNVGNGFLSLLQVATFNGWISIMNSAIDSVGVNMQPSFEYNLYMYSYFIIFVIFGLFLPLCMLIGVIIRNFNKQKIKQGGSNIFITVKQKKQYRALKKLLYADVQKPTPRPRNKFQGFLFDLVTHRVFNVIIILLICFQATTIMIQKDEQSPQMETAIFWMNSIFVMLFTLECILKLTAFRCHYFTSAWNVHDFMVVIFSITGLLLPLTIGQYFVPPSLVQLILLSRVIHILRPGKGPKVFHDLMLPLILALPALLNISLLIFLVMFIYAIFGMYNFAYVKKEAGINDVSNFETFGSSMLCLFQVTTFSGWDGMLDAIFNSQWSDCDPDKINPGTQVKGDCGSPSVGISYFVSYILISWLIIVNMYIVLIMEFLSIPSQKKSRTLSEDDFRRFFRVWNRFDPDRTQYIDSSKLSDFAAALDPPLFMAKPNKGQLVAMDLPMAAGDRIHCLDILLAFTKRVMGKDERVEKILSEIESGFMLANPFKITYEPITTTLKRKQEAVSATIIQRAYKSYRLRQNDKNVSDTPAIDDRRDDLTSKGAHSGKIEEKASIQTQI

The variants in one assay derive from B1. To be noted: with dlg1_mouse Dlg1, Q811D0.
Chain of dlg1_mouse Dlg1, Q811D0 (Q811D0 whole entry): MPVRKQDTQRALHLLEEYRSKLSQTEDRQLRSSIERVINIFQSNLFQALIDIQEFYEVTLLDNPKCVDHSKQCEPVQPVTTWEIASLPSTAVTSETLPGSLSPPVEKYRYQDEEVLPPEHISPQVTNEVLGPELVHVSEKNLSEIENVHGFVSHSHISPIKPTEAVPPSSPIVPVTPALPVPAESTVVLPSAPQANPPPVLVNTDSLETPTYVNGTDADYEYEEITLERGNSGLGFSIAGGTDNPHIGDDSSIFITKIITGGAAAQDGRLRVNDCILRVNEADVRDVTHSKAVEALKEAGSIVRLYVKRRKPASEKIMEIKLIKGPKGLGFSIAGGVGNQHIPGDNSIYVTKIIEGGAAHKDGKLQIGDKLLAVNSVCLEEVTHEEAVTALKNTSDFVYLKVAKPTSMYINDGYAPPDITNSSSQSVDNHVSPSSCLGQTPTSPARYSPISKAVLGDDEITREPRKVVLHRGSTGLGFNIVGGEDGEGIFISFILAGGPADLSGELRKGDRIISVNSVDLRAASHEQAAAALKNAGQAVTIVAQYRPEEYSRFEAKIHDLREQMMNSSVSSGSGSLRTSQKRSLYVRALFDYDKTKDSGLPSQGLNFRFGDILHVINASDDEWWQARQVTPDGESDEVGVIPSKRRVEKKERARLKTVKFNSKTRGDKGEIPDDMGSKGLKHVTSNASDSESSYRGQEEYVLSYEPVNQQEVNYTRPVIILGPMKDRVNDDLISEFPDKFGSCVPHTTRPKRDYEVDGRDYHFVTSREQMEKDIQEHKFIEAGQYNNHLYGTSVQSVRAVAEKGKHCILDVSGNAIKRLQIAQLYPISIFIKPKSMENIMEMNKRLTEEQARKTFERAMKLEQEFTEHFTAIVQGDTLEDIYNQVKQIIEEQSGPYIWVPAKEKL
With T1679A, the “effect of a mutation on the interaction” value is given as “disrupting interaction”.

The variants in the next assay derive from B1. Particulars: with dlg1_rat Dlg1, Q62696.
Chain of dlg1_rat Dlg1, Q62696 (Q62696 whole entry): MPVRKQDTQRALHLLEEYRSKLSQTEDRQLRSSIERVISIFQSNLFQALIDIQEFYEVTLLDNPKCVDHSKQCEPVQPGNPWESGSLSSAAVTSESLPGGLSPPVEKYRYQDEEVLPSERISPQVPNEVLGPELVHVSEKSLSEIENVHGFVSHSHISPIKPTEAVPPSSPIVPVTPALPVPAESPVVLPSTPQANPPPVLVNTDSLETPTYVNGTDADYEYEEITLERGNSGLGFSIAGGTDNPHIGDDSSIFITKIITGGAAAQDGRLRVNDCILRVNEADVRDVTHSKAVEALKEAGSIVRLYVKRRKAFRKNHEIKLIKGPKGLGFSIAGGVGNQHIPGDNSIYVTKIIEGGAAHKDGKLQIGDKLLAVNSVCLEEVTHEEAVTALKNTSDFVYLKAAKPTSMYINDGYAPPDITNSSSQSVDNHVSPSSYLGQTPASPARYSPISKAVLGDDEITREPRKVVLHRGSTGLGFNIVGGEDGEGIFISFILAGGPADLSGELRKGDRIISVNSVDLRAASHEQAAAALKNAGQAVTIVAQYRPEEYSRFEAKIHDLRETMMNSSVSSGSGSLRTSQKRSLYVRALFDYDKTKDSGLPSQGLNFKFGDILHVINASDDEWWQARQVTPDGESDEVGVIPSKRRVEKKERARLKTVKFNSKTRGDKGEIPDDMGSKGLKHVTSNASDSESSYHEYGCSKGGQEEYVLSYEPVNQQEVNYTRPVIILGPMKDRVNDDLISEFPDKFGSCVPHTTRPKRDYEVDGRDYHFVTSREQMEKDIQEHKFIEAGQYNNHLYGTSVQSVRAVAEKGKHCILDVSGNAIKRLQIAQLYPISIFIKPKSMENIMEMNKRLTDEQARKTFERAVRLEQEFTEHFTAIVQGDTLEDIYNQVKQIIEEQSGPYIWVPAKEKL
In the case of T1679A, the “effect of a mutation on the interaction” value is on record as “disrupting interaction”.
